{
  "source": "paper doi:10.1101/553800",
  "biological_target": "hRIO2(1-321)Δ(131-146) (human) (UniProt Q9BVS4)",
  "experiment": "AUC",
  "data": [
    {"substance": "hRIO2(1-321)Δ(131-146) (from UniProt Q9BVS4 1-321) (domain or fragment)", "values": [
      {"measurement": "percent dimer at 27 μM", "result": "> 20", "unit": "%"},
      {"measurement": "stoichiometry N", "result": 2}
    ]}
  ]
}
